A word on the Kd: it is the concentration at which binding is half-saturated.

In patent US20230416383A1 one finds Kd data, which are given here for 1 substance.

Targets include Human FcγRIIIb (human) (UniProt O75015); Human FcγRIIa (human) (UniProt P12318); Human FcγRIIb (human) (UniProt P31994).
What all share (experiment): SPR, mean +/- SD (n = 3)
The target of experiment [1] is Cynomolgus FcγRIIb (cynomolgus monkey).
For experiment [2], the target named is Cynomolgus FcγRIII (cynomolgus monkey) (UniProt Q8SPW2).
Experiment [3] addresses Cynomolgus FcγRI (cynomolgus monkey).
Experiment [4] has as its target recombinant Human Fc gamma RIIIA/CD16a (V176) (human) (UniProt P08637).
The target of experiment [5] is Cynomolgus FcγRIIa (cynomolgus monkey).
For experiment [6], the target named is Cynomolgus FcRn (cynomolgus monkey) (UniProt Q8SPV9).
The target in experiment [7] is human FcγRI (hCD64) (human) (UniProt P12314).
Experiment [8] concerns the target recombinant Human Fc gamma RIIIA/CD16a (V176F) (human) (UniProt P08637).

UniProt P31994, sequence (P31994 46-217 limits assumed): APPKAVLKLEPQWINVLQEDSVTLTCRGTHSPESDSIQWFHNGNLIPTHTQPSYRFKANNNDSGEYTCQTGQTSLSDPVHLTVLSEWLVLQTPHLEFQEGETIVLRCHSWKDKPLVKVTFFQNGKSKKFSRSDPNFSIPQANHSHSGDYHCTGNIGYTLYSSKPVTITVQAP
UniProt P12314, sequence (P12314 16-288 limits assumed): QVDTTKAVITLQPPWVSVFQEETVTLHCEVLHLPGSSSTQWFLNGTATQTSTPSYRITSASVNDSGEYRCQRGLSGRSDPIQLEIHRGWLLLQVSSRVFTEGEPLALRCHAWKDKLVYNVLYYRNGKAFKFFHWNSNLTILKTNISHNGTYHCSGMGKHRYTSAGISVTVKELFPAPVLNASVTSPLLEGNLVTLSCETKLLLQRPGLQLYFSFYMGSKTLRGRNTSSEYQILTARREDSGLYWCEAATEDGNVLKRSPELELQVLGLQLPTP
UniProt O75015, sequence (O75015 17-200 limits assumed): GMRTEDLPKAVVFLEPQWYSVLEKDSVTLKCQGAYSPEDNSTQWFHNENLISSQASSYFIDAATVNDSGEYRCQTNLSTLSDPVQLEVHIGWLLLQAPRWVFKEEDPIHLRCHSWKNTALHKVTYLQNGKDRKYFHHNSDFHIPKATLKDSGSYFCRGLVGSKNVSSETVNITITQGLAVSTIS
UniProt Q8SPW2, sequence (Q8SPW2 17-208 limits assumed): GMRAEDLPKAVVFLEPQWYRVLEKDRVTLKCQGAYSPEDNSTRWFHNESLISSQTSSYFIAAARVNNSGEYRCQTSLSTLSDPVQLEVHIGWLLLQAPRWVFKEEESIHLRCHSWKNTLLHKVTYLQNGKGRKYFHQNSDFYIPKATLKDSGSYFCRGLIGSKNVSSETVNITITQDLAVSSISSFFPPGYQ
UniProt P12318, sequence (P12318 36-218 limits assumed): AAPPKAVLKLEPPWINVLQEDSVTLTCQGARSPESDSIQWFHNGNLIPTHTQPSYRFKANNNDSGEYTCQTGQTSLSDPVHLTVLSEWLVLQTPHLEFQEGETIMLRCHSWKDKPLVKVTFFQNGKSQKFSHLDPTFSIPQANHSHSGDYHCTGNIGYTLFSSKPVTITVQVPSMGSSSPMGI

Regarding Human IgG1 control (antibody), the Kd with Human FcγRIIIb (human) was 7540 nM; in the experiment with Human FcγRIIa (human) it was 1570 nM; in experiment [1] it was 2320 nM; in experiment [2], 580 nM; in experiment [3], 18 nM; in experiment [4], 575 nM. The Kd worked out at 4230 nM with Human FcγRIIb (human); 6340 nM in experiment [5]; 237 nM in [6]; 0.2 nM in experiment [7]; 2820 nM in experiment [8].
